Test results as given in the supplement of paper PMC10567573.

B1: KLHL14 (parent)
chain: WLYCYDPVMDVWARKQDMNTKRAI
B2: FBXO39 (parent)
chain: RVFKARIYTNRYETNEEDKTLQEI
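Also: lentivirally expressed fusions sorted by FACS into six bins by GFP to DsRed ratio, PSI derived from sequencing read proportions per bin multiplied by bin number.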

Variants of: B1
Experiment: protein stability index of a GFP-peptide fusion (GPS, HEK-293T) (PSI 1-6); higher = more stable
Settings: c terminus: a fixed tail appended
Variant WLYCYDPVMDVWARKQDMNTKRAV [I24V] has a protein stability index of 2.53.
WLYCYDPVMDVWARKQDMNTKRAD [I24D] gave a protein stability index of 2.92.
In the case of WLYCYDPVMDVWAHKQDMNTKRAI [R14H], the protein stability index is reported as 1.97.
For WLYCYDPVMDVWADKQDMNTKRAI [R14D], the protein stability index was 2.11.
For WLYCYDPVMDVWAVKQDMNTKRAI [R14V], the protein stability index was 2.62.
With WLYCYDPVMDVWARKQDMWTKRAI [N19W] the protein stability index was 2.53.
For WLYCYDPVMDVWARKQDMQTKRAI [N19Q], the protein stability index was 2.2.
Work on WLYCYDPVMMVWARKQDMNTKRAI [D10M] yielded a protein stability index of 1.59.
With WLYCYDPVMRVWARKQDMNTKRAI [D10R] the protein stability index was 2.34.
WLYCYDPVMGVWARKQDMNTKRAI [D10G] showed a protein stability index of 2.77.
WLYCYDPVMAVWARKQDMNTKRAI [D10A] gave a protein stability index of 1.88.
In the case of WLYHYDPVMDVWARKQDMNTKRAI [C4H], the protein stability index is reported as 2.6.
WLYCYDPVMDVWDRKQDMNTKRAI [A13D] gave a protein stability index of 2.84.
WLYCYDPVMDVWQRKQDMNTKRAI [A13Q] gave a protein stability index of 2.46.
For WLYCYDPVMDVWKRKQDMNTKRAI [A13K], the protein stability index was 2.52.
For WLYCYDPVMDVWARKQDMNPKRAI [T20P], the protein stability index was 2.
Work on WLYCYDPVMDVWARKQDMNEKRAI [T20E] yielded a protein stability index of 1.95.
Variant WLYCYDPVMDVWARKQDMNRKRAI [T20R] has a protein stability index of 1.77.
In the case of WLYCYDPVMDVWARKQDMNFKRAI [T20F], the protein stability index is reported as 1.44.
Variant WLYCYDPVMDVWARKQDMNTLRAI [K21L] has a protein stability index of 1.88.
With WLYCYDPVMDVWARKQDMNTNRAI [K21N] the protein stability index was 1.81.
For WLYCYDPVMDVWARKQDMNTIRAI [K21I], the protein stability index was 1.71.
With WLYCYDPVMDVWARKQDKNTKRAI [M18K] the protein stability index was 2.1.
Work on WLYCYDPVMDVRARKQDMNTKRAI [W12R] yielded a protein stability index of 1.78.
Variant WLYCYDPVMDVEARKQDMNTKRAI [W12E] has a protein stability index of 2.06.
In the case of WLYCYDPVMDVQARKQDMNTKRAI [W12Q], the protein stability index is reported as 1.92.
With WPYCYDPVMDVWARKQDMNTKRAI [L2P] the protein stability index was 2.13.
WKYCYDPVMDVWARKQDMNTKRAI [L2K] gave a protein stability index of 2.29.
For WHYCYDPVMDVWARKQDMNTKRAI [L2H], the protein stability index was 2.35.
WQYCYDPVMDVWARKQDMNTKRAI [L2Q] gave a protein stability index of 2.55.
For WDYCYDPVMDVWARKQDMNTKRAI [L2D], the protein stability index was 2.52.
WLYCYDPVMDVWARAQDMNTKRAI [K15A] showed a protein stability index of 1.68.
Variant WLYCYDPVMDVWARKQGMNTKRAI [D17G] has a protein stability index of 1.97.
In the case of WLYCYDPVMDVWARKQPMNTKRAI [D17P], the protein stability index is reported as 2.16.
Variant WLYCYDPVMDVWARKQFMNTKRAI [D17F] has a protein stability index of 2.24.
In the case of WLYCYQPVMDVWARKQDMNTKRAI [D6Q], the protein stability index is reported as 2.29.
WLYCYDPVMDVWARKQDMNTKRNI [A23N] gave a protein stability index of 1.7.
In the case of WLYCYDPVMDVWARKQDMNTKRYI [A23Y], the protein stability index is reported as 1.92.
WLYCYDPVMDVWARKQDMNTKRWI [A23W] showed a protein stability index of 1.37.
Work on WLYCYDPVMDVWARKEDMNTKRAI [Q16E] yielded a protein stability index of 2.4.
Work on WLYCYDPVMDVWARKVDMNTKRAI [Q16V] yielded a protein stability index of 2.29.
With WLYCYDPVMDVWARKADMNTKRAI [Q16A] the protein stability index was 2.42.
In the case of WLYCYDEVMDVWARKQDMNTKRAI [P7E], the protein stability index is reported as 1.88.
WLYCYDPVYDVWARKQDMNTKRAI [M9Y] gave a protein stability index of 2.01.
With WLYCYDPVFDVWARKQDMNTKRAI [M9F] the protein stability index was 1.62.
Variant ALYCYDPVMDVWARKQDMNTKRAI [W1A] has a protein stability index of 2.56.
DLYCYDPVMDVWARKQDMNTKRAI [W1D] gave a protein stability index of 4.41.
In the case of SLYCYDPVMDVWARKQDMNTKRAI [W1S], the protein stability index is reported as 3.06.
With MLYCYDPVMDVWARKQDMNTKRAI [W1M] the protein stability index was 2.62.
WLTCYDPVMDVWARKQDMNTKRAI [Y3T] showed a protein stability index of 2.36.
With WLSCYDPVMDVWARKQDMNTKRAI [Y3S] the protein stability index was 1.77.
In the case of WLKCYDPVMDVWARKQDMNTKRAI [Y3K], the protein stability index is reported as 2.09.
Work on WLNCYDPVMDVWARKQDMNTKRAI [Y3N] yielded a protein stability index of 2.12.
With WLACYDPVMDVWARKQDMNTKRAI [Y3A] the protein stability index was 2.02.
WLWCYDPVMDVWARKQDMNTKRAI [Y3W] gave a protein stability index of 2.42.
With WLYCRDPVMDVWARKQDMNTKRAI [Y5R] the protein stability index was 2.26.
Work on WLYCADPVMDVWARKQDMNTKRAI [Y5A] yielded a protein stability index of 1.92.
With WLYCSDPVMDVWARKQDMNTKRAI [Y5S] the protein stability index was 2.46.
Variant WLYCYDPVMDLWARKQDMNTKRAI [V11L] has a protein stability index of 2.04.
In the case of WLYCYDPVMDGWARKQDMNTKRAI [V11G], the protein stability index is reported as 1.62.
WLYCYDPVMDKWARKQDMNTKRAI [V11K] showed a protein stability index of 1.95.

Variants of: B2
Experiment: as above
Settings: c terminus: a fixed tail appended
RVFKARIYTNRYETNEWDKTLQEI [E17W] showed a protein stability index of 2.27.
RVFKARIYTNRYETNEYDKTLQEI [E17Y] showed a protein stability index of 2.72.
For RVFKARIYTNRYETNEEDKTLQCI [E23C], the protein stability index was 2.13.
RVFKARIYTNRYETNEEDKTLQII [E23I] gave a protein stability index of 1.88.
RVFKARIYTNRYETNEEDKTLQLI [E23L] gave a protein stability index of 2.42.
RVFKARIYTNRYETNEEDKTLQWI [E23W] showed a protein stability index of 1.74.
RVFKARIYTNRYETNEEDKTLQRI [E23R] showed a protein stability index of 2.05.
Work on RVFKARIYTNRYETNEEDKTLQSI [E23S] yielded a protein stability index of 2.32.
In the case of RVFKARIYTNRYETNEEDKTLQGI [E23G], the protein stability index is reported as 2.19.
RVFKARIYTNRYETNEEDKTLQKI [E23K] gave a protein stability index of 2.74.
RVFKARIYTNRYETNEEDKTLQMI [E23M] showed a protein stability index of 2.14.
For RVFKARIYTNRYETNEEDKTLQQI [E23Q], the protein stability index was 2.21.
For RVFKARIYTNRYETNEEDKTLQDI [E23D], the protein stability index was 2.58.
Variant RVFKARIYTNRYETNEEDKTLQFI [E23F] has a protein stability index of 1.93.
With RVFKARIYTNRYETNEEDKTLQVI [E23V] the protein stability index was 2.41.
RVFKARIYTNRYETNEEDKTLQPI [E23P] gave a protein stability index of 2.39.
RVFKARIYTNRYETNEEDKTLQNI [E23N] showed a protein stability index of 2.15.
With RVFKARIYTNRYETNEEDKTLQYI [E23Y] the protein stability index was 2.14.
RVFKARIYTNRYETNEEDKTLQTI [E23T] showed a protein stability index of 2.44.
For RVFKARIYTNRYETNEEDKTLQHI [E23H], the protein stability index was 2.74.
RVFKARIYTNRYETNEEDKTLQEQ [I24Q] showed a protein stability index of 3.32.
RVFKARIYTNRYETNEEDKTLQEY [I24Y] showed a protein stability index of 3.17.
For RVFKARIYTNRYETNEEDKTLQEP [I24P], the protein stability index was 3.21.
In the case of RVFKARIYTNRYETNEEDKTLQEN [I24N], the protein stability index is reported as 2.64.
Variant RVFKARIYTNRYETNEEDKTLQET [I24T] has a protein stability index of 2.75.
Work on RVFKARIYTNRYETNEEDKTLQEC [I24C] yielded a protein stability index of 2.61.
Work on RVFKARIYTNRYETNEEDKTLQEE [I24E] yielded a protein stability index of 3.48.
For RVFKARIYTNRYETNEEDKTLQEK [I24K], the protein stability index was 2.98.
Variant RVFKARIYTNRYETNEEDKTLQER [I24R] has a protein stability index of 3.22.
Work on RVFKARIYTNRYETNEEDKTLQEV [I24V] yielded a protein stability index of 3.44.
For RVFKARIYTNRYETNEEDKTLQEH [I24H], the protein stability index was 3.7.
Work on RVFKARIYTNRYETNEEDKTLQED [I24D] yielded a protein stability index of 3.26.
With RVFKARIYTNRYETNEEDKTLQEM [I24M] the protein stability index was 2.25.
